{"source": "patent US20050053993A1", "about": "“Uses of an endothelial cell receptor” (priority 2002, published 2005)", "molecules": {"B1": {"name": "rK5: recombinant kringle 5 fragment of human plasminogen (residues 450-543), expressed in E. coli or yeast (protein)", "chain": "LLPDVETPSEEDCMFGNGKGYRGKRATTVTGTPCQDWAAQEPHRHSIFTPETNPRAGLEKNYCRNPDGDVGGPWCYTTNPRKLYDYCDVPQCAA"}}, "key": {"[1]": {"biological_target": "T1, recombinant human GRP78 (rGRP78) (Homo sapiens, UniProt P11021)", "T1 construct": "host or cells: yeast", "T1 sequence (P11021 19-654)": "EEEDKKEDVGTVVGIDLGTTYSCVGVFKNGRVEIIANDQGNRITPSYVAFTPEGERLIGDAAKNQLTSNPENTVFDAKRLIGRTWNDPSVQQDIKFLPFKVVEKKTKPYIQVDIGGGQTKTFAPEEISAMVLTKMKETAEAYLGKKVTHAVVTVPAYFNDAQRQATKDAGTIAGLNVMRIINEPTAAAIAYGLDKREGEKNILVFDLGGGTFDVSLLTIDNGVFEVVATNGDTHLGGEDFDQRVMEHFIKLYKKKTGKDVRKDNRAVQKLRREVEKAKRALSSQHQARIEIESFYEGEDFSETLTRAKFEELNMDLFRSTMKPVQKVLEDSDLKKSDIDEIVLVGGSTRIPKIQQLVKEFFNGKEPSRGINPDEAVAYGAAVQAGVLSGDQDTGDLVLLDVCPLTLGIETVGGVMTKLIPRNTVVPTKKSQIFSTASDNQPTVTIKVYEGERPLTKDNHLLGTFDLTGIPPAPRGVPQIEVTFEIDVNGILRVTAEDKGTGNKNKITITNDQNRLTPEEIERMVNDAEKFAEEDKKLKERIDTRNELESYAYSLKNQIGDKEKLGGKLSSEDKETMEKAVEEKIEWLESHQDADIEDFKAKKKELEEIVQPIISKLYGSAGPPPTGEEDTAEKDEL", "assay": "Equilibrium dialysis of rGRP78 and 3HK5", "assay_type": "binding", "settings": "competition dialysis, 2 nM GRP78 and 2 nM 3HK5; mutant up to 25-fold excess of GRP78", "procedure": "FIG. 14A is a graph showing equilibrium dialysis of recombinant GRP78 (rGRP78) and ^3HK5. ^3HK5 was added to one side of an equilibrium chamber at concentrations from 0.1 to 3 nM. 2 nM GRP78 was added to the other side of the chamber with a […] mwco filter between. ^3HK5 was allowed to equilibrate to both side of the chamber for 72 hours at room temperature. The amount of ^3HK5 on the GRP78 side of the chamber was compared to chamber with ^3HK5 alone to obtain the bound verses free rK5 distribution.\nFIG. 14B is a graph showing competition binding dialysis rGRP78 and ^3HK5. Experiments were performed with 2 nM GRP78 and 2 nM ^3HK5 using rK5(K82A) mutant and unlabeled rK5 at various concentrations from 0.5 to 50 nM. The amount of ^3HK5 on both sides of the chamber was measured after 72 hours and compared to the control.\nBinding of rK5 to rGRP78 was measured using equilibrium dialysis (Kariv I, Cao H, Oldenburg K R. Development of a high throughput equilibrium dialysis method. J Pharm Sci. 2001 May; 90(5):580-87). In the top well of a 96 well equilibrium dialyzer (molecular weight cut off 50K Daltons, Harvard Apparatus, Holliston, M A) 150 μl of 10 nM rGRP78 was added. In the reciprocal (bottom) chamber, 150 μl of increasing concentrations from 0.1 to 50 nM ^3HK5 was added. The chambers were shaken at room temperature for 72 hours. […]"}, "fibroblasts": {"test_system": "fibroblasts", "assay": "Fibroblast migration", "assay_type": "cell-based", "settings": "concentrations up to 1000-fold higher than for endothelial cell migration; data not shown"}, "B16F10": {"test_system": "B16F10", "assay": "Tumor cell proliferation, B16F10", "assay_type": "cell-based", "settings": "B16F10, 72 hours", "procedure": "(§1) Cell Proliferation Assay. The effect of rK5 and rK5 peptides on endothelial cells were assessed using a proliferation assay with 1% BSA and 3 ng/ml bFGF in serum-free media. Relative cell numbers in each well of a 96 well microplate after incubation for 72 hours in the absence or presence of inhibitors were determined by using the AQueous cell proliferation assay (Promega, San Luis Obispo, Calif.). For all other cell lines tested for proliferation, minimal growth media was used (Cao, Y., Ji, R., Davidson, D., Schaller, J., Marti, D., Sohndel, S., McCance, S., O'Reilly, M., Llinas, M., and Folkman, J. Kringle domains of human angiostatin. Characterization of the anti-proliferative activity on endothelial cells. (1996) J. Biol. Chem. 271, 29461-29467). Results are presented as the percent inhibition of control cell (bFGF-induced) proliferation."}, "endothelial cells": {"test_system": "endothelial cells", "assay": "Binding of labeled K5 to endothelial cells (Scatchard)", "design": "species or system human", "settings": "stimulated vs starved cells", "from_the_text": "FIG. 10A is a graph showing the amount of surface expressed GRP78 on endothelial cells compared to rK5 binding. For all the assays in this figure, 50,000 cells were attached to 96 well plates. Human rK5 potency is highly dependent on the extent of iodination because it contains a readily iodinated tyrosine in its binding sequence. […] However dog K5 has a phenylalanine in this position naturally and is folded and active in these assays. Accordingly ^125IrK5 (dog) was used as a reagent. ^125IrK5 (dog) was added to the wells and incubated at room temperature for 1 hour. After 1 hour the cells were washed and the amount of I^125IrK5 (dog) bound was counted.\nFIG. 11 is a graph comparing the binding of rK5 to starved, quiescent endothelial cells with that of endothelial cells stimulated by VEGF/bFGF. […] The number of counts remaining bound to the cells after extensive washing determined total amount of rK5 bound.\nBinding of human ^125IrK5 to Endothelial Cells: Tritium-labeled rK5 was added to monolayers of 50,000 HMVEC cells that were either starved or stimulated for 16 hours by 15 ng/ml bFGF and 5 ng/ml VEGF in 96 well plates. […] After 1 hour the cells were washed and lysed with M-Per (Pierce, Racine, Wis.) and the amount of ^125IK5 (dog) bound was counted. […] Cells were washed and the amount of bound ^125IK5 (dog) bound was counted. […]"}, "HT1080": {"test_system": "HT1080", "assay": "Tumor cell proliferation, HT1080", "assay_type": "cell-based, human", "settings": "HT1080, 72 hours", "procedure": "as §1"}}}
{"molecule": "B1", "values": [{"measurement": "blocking of 3HK5 binding to rGRP78", "setting": "[1]", "result": "blocked"}, {"measurement": "inhibition of migration of fibroblasts", "setting": "fibroblasts", "result": "failed to inhibit"}, {"measurement": "IC50 values for cell proliferation", "setting": "B16F10", "result": ">100", "unit": "µg/mL"}, {"measurement": "binding to stimulated endothelial cells upregulated as compared to starved cells", "setting": "endothelial cells", "result": "4-10 fold"}, {"measurement": "IC50 values for cell proliferation", "setting": "HT1080", "result": ">100", "unit": "µg/mL"}]}
